Consider 1 molecule from PMC4497498, “Kv1.3 contains an alternative C-terminal ER exit motif and is recruited into COPII vesicles by Sec24a” (BMC Biochemistry, 2015).

Series [1] deals with the molecule itself. The series can be described thus: native gel or EMSA + other: negative stain electron microscopy; purified Kv1.3 in Fos-12 or amphipol A8-35 on a 4-16 % native gel; negative stain EM with 2D class averages of Kv1.3 in A8-35; tetramer. A general note: A gel shift assay detects complexes by their altered migration in electrophoresis.
Series [2] deals with T1, Sec24a^341 (Sec24a lacking the first 341 residues) (human, UniProt O95486 342-1093).
T1 construct: Sec24a, COPII cargo adaptor subunit, human; ~80 kDa; source: Hi5 insect cells (baculovirus), purified (HisPur Cobalt resin, Superose 6)
T1 sequence (looked up): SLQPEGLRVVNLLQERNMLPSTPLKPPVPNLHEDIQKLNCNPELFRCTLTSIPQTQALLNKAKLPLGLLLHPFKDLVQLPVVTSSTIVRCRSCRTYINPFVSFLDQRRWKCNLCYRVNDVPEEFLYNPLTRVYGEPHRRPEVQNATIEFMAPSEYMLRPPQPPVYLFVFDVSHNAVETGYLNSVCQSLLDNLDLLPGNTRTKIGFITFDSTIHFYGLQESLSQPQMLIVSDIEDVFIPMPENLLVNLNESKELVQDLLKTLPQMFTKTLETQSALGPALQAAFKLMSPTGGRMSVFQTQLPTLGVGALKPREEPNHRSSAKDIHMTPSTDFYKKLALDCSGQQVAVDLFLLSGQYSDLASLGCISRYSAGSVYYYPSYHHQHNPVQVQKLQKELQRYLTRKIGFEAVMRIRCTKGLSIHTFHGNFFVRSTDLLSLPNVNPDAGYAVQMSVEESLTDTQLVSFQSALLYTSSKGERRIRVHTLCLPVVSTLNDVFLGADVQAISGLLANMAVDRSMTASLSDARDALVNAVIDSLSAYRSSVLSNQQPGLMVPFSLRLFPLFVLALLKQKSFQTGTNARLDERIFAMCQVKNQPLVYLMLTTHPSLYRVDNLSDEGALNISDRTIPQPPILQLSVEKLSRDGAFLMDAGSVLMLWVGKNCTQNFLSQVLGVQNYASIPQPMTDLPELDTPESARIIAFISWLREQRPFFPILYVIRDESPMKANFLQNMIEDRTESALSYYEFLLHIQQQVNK
In words: membrane flotation assay; 15 ug Sec24a^341 incubated with 15 ug Kv1.3 proteoliposomes (DOPC:DOPS 95:5) in 25 mM Tris, 150 mM NaCl, 160 mM KOAc, 1 mM MgOAc, pH 7.5, 30 % sucrose, 32 °C for 1 h; overlaid with 25 % and 0 % sucrose, 200,000 g for 1 h at 4 °C; fractions read by Western blot. The note with it: both partners purified.

B1: Kv1.3 (mouse Shaker-type voltage-gated potassium channel subfamily member 3), recombinant, His6-tagged (natural protein, UniProt P16390 1-528, looked up)
chain: MTVVPGDHLLEPEAAGGGGGDPPQGGCGSGGGGGGCDRYEPLPPALPAAGEQDCCGERVVINISGLRFETQLKTLCQFPETLLGDPKRRMRYFDPLRNEYFFDRNRPSFDAILYYYQSGGRIRRPVNVPIDIFSEEIRFYQLGEEAMEKFREDEGFLREEERPLPRRDFQRQVWLLFEYPESSGPARGIAIVSVLVILISIVIFCLETLPEFRDEKDYPASPSQDVFEAANNSTSGAPSGASSFSDPFFVVETLCIIWFSFELLVRFFACPSKATFSRNIMNLIDIVAIIPYFITLGTELAERQGNGQQAMSLAILRVIRLVRVFRIFKLSRHSKGLQILGQTLKASMRELGLLIFFLFIGVILFSSAVYFAEADDPSSGFNSIPDAFWWAVVTMTTVGYGDMHPVTIGGKIVGSLCAIAGVLTIALPVPVIVSNFNYFYHRETEGEEQAQYMHVGSCQHLSSSAEELRKARSNSTLSKSEYMVIEEGGMNHSAFPQTPFKTGNSTATCTTNNNPNSCVNIKKIFTDV
modifications: phosphorylated, sites not stated (non-dephosphorylated tetramers were used for reconstitution)
notes: Kv1.3, mouse; wild type cDNA cut from Kv1.3-pcDNA3 at the Nco and Kpn sites and ligated into pFastbac HT; Integral membrane protein; a monomer runs at ~65 kDa; No TEV cleavage of the tag is described; also called Kv1.3 tetramers; Kv1.3 proteoliposomes; source: Hi5 insect cells (baculovirus), purified (cobalt Chelating Sepharose, Superose 6) in Fos-12; reconstituted into DOPC:DOPS proteoliposomes, …
The stoichiometry N is a count of units in the complex or per binding partner. For the molecule B1, in series [1], the “stoichiometry N” value was found to be 4. Further, the binding result in series [2] is listed as “binds”.
